Test results: the supplement of paper PMC12455559

Experiment: purified protein yield per well (BCA); higher = higher soluble expression
Outline: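 Expression was done in E. coli C41(DE3), using 2 mL autoinduction cultures with 100 µg/mL kanamycin incubated at 37 °C for 2 h and at 18 °C for 40 h. Protein was purified on Ni-charged magnetic beads and released by SUMO protease cleavage. Yield of purified protein per well was measured with the Pierce Rapid Gold BCA kit; values below 25 ug (0.1 mg/mL) are below detection.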

Row | Sequence | purified protein yield per well
1 | APPVAGPYQRGPAPTEEVLVAARGPFAVTQTRMAAGQGTGAGTVHHPTDASQGTFGAVAVMPGFMGTEKSIRLYGPLLASHGFVVLTLSSVRRADFPDQRADQLLAALDRLVAGPAKGLIDAERLAVVGHSMGGGATLRAAARRPGLKAAVPLAPWHVRRDWRSVRVPTLIFGSENDRVAPVDKHAEPFYASLTRAPEKAYVELRDGGHLSFNTANPVIAKYTVSWLKRYVDDDVRYDPFLCPGPAFPSPTIREYRGTCPS [DP060] | < 25 µg
2 | APQAPENPYQRGPAPTEQSIVADRGSFEVERISVGSWSGPGFNKGTIYAPKDRSQGTFGAIAVSPGFVSPEYLISWYGERLASRGFVVMTIETTTLYDQPAQRGDQLLAALDYVVSDDSPVRDRVDPNRLAVMGHSMGGGGTLHAVKERKSLKAAVPLMPWNLFTDWGDVQTPTMIIGAQNDLIASVGLHSEPFYNSLRSAREKAYLEMDGAGHLVANSPNDTIAKYTIAWMKRYVDNDTRYEQFLCPAPSRDRNISEYRDTCPGS [DP015] | < 25 µg
3 | APVAVAPAAVPVHGVDPTDANLRQPVGDLAFSQVTIADSQTPGFGAATIYYPDDTTHGTYGGVAVVPGYTSPQSAVAWLGPRLASRGFVVITIATNSIYDQPTTRGRELLSALDYLTTSSPAAVRQRLDPQRLAVMGHSMGGGGALYAVSQRTTIKAAVPLAPYNQDKTWQTVKTPTMLMAGSADNVAGIGTFSRPFYRSMTGARERALVNVQGADHGTFVRENATIGKYATAWLKRFVDEDTRYDQFLCPAPTGDGLTEYTASCPNA [DP012] | < 25 µg
4 | AQPQKGPDPTEQLVKSQTGPFDIARTSVPAGSGRGFNKGTLYYPTDTSQGAYAAVAVIPGFFEGEYTQSWFGPALASHGFVVFTLETHGLFDFPDQRGDQLIAALDWLVASSPVKDRVDPARLAVMGHSMGGGGTLAAANKRPSIKAAVALTPWHMTKRFPGIEAATMIIGAQSDSIASVSGHAEPMYAALTSPDEHAYVELTGGHFVTNSYTATNMRFILPWLKRFLDSDTRYSPFVCPGPAQDSTFVEYRNTCPV [TEP047] | < 25 µg
5 | AQQTILQESFNSSLGSFTSAGSVSVGSSGALMRGSAYSTDGRITSAAVSTQGLTNIVLSFTSATSGLDLGEAAIVSYSTNGSSYTTVSSERYATGSFTFNLGTAAANQSQLFLRFAIDASSTYETYAVDNIILTGDGEGGGTTCTTCIGPDPTVAALEAARGPFNTSSFGLSSWSVSGFGGGDIFYPTNAPAGPLAAIAICPGFLGTSETVDWWGPRLASHGFVVIVMDPNSVFDQPAQRATQLMACLDELEDQNNDSGSPIYGMVDSNRVGLMGHSMGGGGTLIATEDNPSVIKAAIPMAPWNMLSSNFSDITTPTLVIACEADLIAPVAQHARPFYDSIPSTVPKAFLEINNGDHLAVMNGDVFEDMLGKYGVAWMKVFLDNDQRYMQFLCGPDHESDWDISDYRSSCPY [DP024] | < 25 µg
6 | AQSPYERGPAPTETSVRASTGPFQYAQVSVPGAGFGSGTIYYPTDTGQGTFGGVAVSPGFLSPEILIAWLGPKLASNGFVVITISTNNPGDQPDSRGEQLLAALNYLATQSPAAVRQRLDPGRLSVIGHSMGGGGALRAADSRPDLQAAIPLGGWHTNKNWSNIRVPTMVIGAQNDFIAPNDQHSQRFYTSITQAPEKAYLRPVGTGHVNVGTGTPVVGKFVLSWLKRFVDDDTRYDQFLCPTPSGSDLVEYHSTCPHT [DP014] | < 25 µg
7 | ASLSIGGEYQVLTYTDFPDVPEFGDATIYYPLETPGTVGGVAIAPGFTERQSHIEWWGPRLASHGFAVLVLDTNERRAMPDARGDALLAAVEVLRRESAREGSPLFGRVATDKMAIMGHSMGGGGALLAANEHSDQIQAAIPFTPWEPQAVFQDITVPTLVLAGSVDRLARVDNHAWRHYQSIPESTPKAYLEVGGGNHYIADTERGTDLETI [TEP137] | < 25 µg
8 | ASPYERGPDPSRTSIEARRGPFAVTSTSVSDLSTPGFGSATITYPTSTAEGTYGAVAVSPGFTASESTIAWLGPRLASQGFVVITFNTQSRLDQPAARGDQLLAALDYLTQRSSTTIRSRIDPTRLAVIGHSMGGGGTLEAAKDRPSLQATVGLTPWNLDKSWPEIRTPSLVIGAESDTVAPVGSHAVPFYQSIPSSTAKAYLELNNASHFAPNTENTTIASSTISWLKLYVDDDDRYRQFLCPGPQSSVTGSVSDYRNTCTS [DP050] | < 25 µg
9 | ATASFQRGPAPSAASIRATDGPFAITRTNVARAAVSGFGGGDIYAPDDTSQGTFGAVAIAPGFTATRSSMAWLAPRIASQGFVVFNIDTLTTSDQPATRGRELLAALDFLTAQSTARAKIDKNRLAVMGHSMGGGGTLEAAKSRPALKAAVPLTPWDLTKNFAGVTVPTMIIGAQSDTIAPVRQHSERFFASLPSGADTGYLELAGASHFAPNIPNTTIASTSVAWLKRFVDEDTRFEQFLCPGPATGATVSEYETNCPHQG [DP071] | < 25 µg
10 | ATGPSAPCTNCTRGPAPTTAALKSNTGPFTTAKFSVSGLLKGFGNSTVYYPTNTTGKMGAIAVIPGFLSYEDSIEWWGPRLASHGFVVMTMNTSTIYDQPDSRATQLSKALDYVISQSNTSSSPIYGKVDSTRLGAIGWSMGGGGSLKLSTQRSLNAIIPQAPYYAGLNSFNTIKTPALILACSADAVAPVGVHASPFYNKIPSTTPKAFLEIYGGSHFCANSGYPNQDLLGLYGISWMKRFIDFDTRYSQFLCGPNHTASGTISEYRQNCPY [ESM019] | < 25 µg
11 | ATTAGTFGGVAISPGYTASESTIAWLGPRIASQGFVVITFNTNSRYDQPASRGDQLLAALDYLTGSSAVRARVDASRLAVMGHSMGGGGALEAAKDRPSLQAAIPLTGWNTDKTWPEVRTPTLVIGAENDSVAPVGSHSIPFYNSLTSAPERAYLELNNASHFAPNSPNTDIASSSIAWLKRYVDDDTRYTQFLCPGPSVSAFGSVSDYRATCPM [TEP154] | < 25 µg
12 | ATTSFRRGPDPSAASIRAANGPFAIAKTTVARQAGFGGGDIYAPTDTSRGTFGAVAIAPGFTATRSSLAWLAPRIASQGFVVFNIDTLTTSDQPAQRGRELLAALDFLTGSSTARAKIDRTRLAVMGHSMGGGGTLEAAKARPSLKAAVPLTPWDLTKNFATVKVPTMIIGAQSDTIAPPSRFSDQFFASLPAATNKGYLELAGASHFAPNIPNPTIASTSIAWLKRFVDGDTRFEQFLCPGPSSNGISEYQTNCPHKA [ESM129] | < 25 µg
13 | ATTTLLAESFDNGFGVFSAQGYASTDNGVAVLRGGSADGTITSGAVPAAGQTNLTLSWTQTTSRLDAGESLVVEWSTGSSWSSLSSERSSGVLSVGLPTAAASNALQLRFRVDASSYYERVDVDDVVLTAGDGGGSGNPYAKGPDPTWNSIEATTGPFEVDDYDISSFAADGFGGADVYYPSDAGSATFGGIAISPGYTASRSTVTWLGPRIASQGFVVIVIDTNSRYDQPASRGDQLLAALDQLVNDSDVSHLVDPNRLAVMGHSMGGGGSLEAADDRPSLRAIVPLQGWNSDKTWSQVQVPALLIGGENDSVAPDSSHSQRFYDSLGGEKVYLQLNNASHFASNSPNTTIASYSIAWLKRWVDEDTRYSQFVCGPDAGQGSAISDYRTTCPV [DP065] | < 25 µg
14 | ATVACSDCSNGFQRGTLPRVDQLESSRGPYSVKTSNVSVFARGFGGGTIHYSTDSGGQQGIIAVIPGYVSYESSIKWWGPRLASWGFTVITINTNTIYDQPNSRANQLSAAIDYVIDKGNDRSSPIYGLVDPERVGVIGWSMGGGGTLKLATDRDIDAIIPQAPWYSGLNSFSRITTPTMVIACQADAVAPVALHASIFYNQIPRSTPKAFFEIAAGSHFCGNSGYPNEDILGRNGVAWMKRFIDNDTRYNQFLCGQNFDRSLRVSDYKDTCNTY [DP094] | < 25 µg
15 | ATVTPIRMETRIRTSSFTRFTSTPTACAFDSPIAKAFSSVRSRIDASRLAVAGHSMGGGGTLEAAKDRPGLRAAVPLAPWNTTKNWSGNRVPTLIIGGQSDTIAAVSSHAVPFYTSLPTTPDKAYLELAGASHFFPQSANADVAMMFVSWLKRFVDGDTRYEQFLCPGPSVSGSVSRYSSTCPLASGPTPTSTTTATTGTSTTRTTTTSSGGSGGGACSASYATSNAWQGGFVGTVTVRADLALSGWQVTLALPAGTTITGSWNGVRSGSTGTVQVRNETYNGILASGQTTSFGFQGSGSPSGLTVTSCTAN [ESM108] | < 25 µg
16 | AVQNGPAPTSTSVNAAGTYATASSAVAASASLGFGGGTIYYPTAAGTYGVIALCPGFTATQTSVAWLAQRLATHGFVTLAMNTNNPLLDSPSSRGIQLRAAIAYLTGSSAPAAVKAHVDATRRAVYGHSMGGGGVLYALTSDKTLKAGFPMAPYNTATTSFPTITSATMILTGTGDTTAPPSTYGLPMYNSLPVTTQKAYALLTGAGHS [TEP161] | < 25 µg
17 | CAAQAQTSPPTSASLNATAGPLSVSTSSVSSWAARGFGGGTIYYPNATGRYGVVAISPGYTARQSSIAWLGRRLATHGFVVITIDTNSTLDQPPSRATQLMAALNHVVNNANATVRSRVDASKLAVAGHSMGGGGSLIAAENNPSLKAAYPLTPWSVSKNYSSVRVPTMIIGADGDSIASVSTHSRLFYNSLSSNVSKAYGELNNASHFTPNYTNTPIGRYAVTWMKRFVDNDTRYSPFLCGAPHDSYATRTVFDRYEDNCAY [ESM071] | < 25 µg
18 | CADRPPVQDEDPAPTAASLAAPLGPYRTSTATVPRGLTEAFGGGTIYYPSGRPRGDTFGGVIIAPGRNGNQGGMAWYGPLLASRGFVVFAIDTLHLKDRPAARAHELEAAMTYLTVRSPVATLVDADRLAVMGHSFGGGAALETAADRPTLRAAIPLMPYDKGREFSNVRVPTLVVAAQNDKIAPVSRHARRFYRSIPASSGKGYLEIAGTTHSSPKKPNTTLAAYVIAWLKRYVDGDERYERFLCPGPIDDPSVALYRNPCS [TEP060] | < 25 µg
19 | CASVASPPAATLAALSGNGSYEVMTYTDFPDVPEFGDATIYYPQDAPAPVGGVAIAPGFTEVQSHISWWGPRLASHGFAVLVLDTNDRRDRPDLRADALIAAVTLLRAENSRSGSPLNSRIDVGKMAIMGHSMGGGGVLLAANEHSDQIQAAIPFTPWVPDVEFGNITVPTLVIAGSADRIANVTDHAWRHF [TEP113] | < 25 µg
20 | CATAGSTTDSAPVSAASLSVDGAYEVRTYSDFPDVPEFGAATIYYPVGVPQPIGGVAIAPGFTEEQRHISWWGPRLASHGYAVLVLDTNERRERPDARASALIAGVTLLRAEGLRQGSPLFGGIDLAKMAIMGHSMGGGGALLAANEHSDQIRAAIPFTPWEPETNLGGVSAPTLVLAGAADGIAEVDEHAWRHFSMIPESTPKVYLEIAGGDHYIADTTRGTDLATVGRYAIAWLKLYVDRDERYRDFIYGE [TEP065] | < 25 µg
21 | CDSILFQSIASPGPYNVLSIDESDGIRNGQDYNGATIFYPEGNLYNLPSIVFVPGYSNTQFTIQNWGLFLASYGIVTMTIGTNTLIDSHIQRKDALLDALITIKQENVRSSSPLYNSLDTLKLALGGFSKGGGGAQLAASIGQNIKAVIALYPWLENISAVDLNHDVPVLIVSGNLDIIAPPSLHADVHYMYTPETTKKLKYEIAFATHDPLIGPNAGFGEVGKKTLSWLQTFLLGDSCFCPYLLDTPSNASIYMSNLNCTEISTNTYNLESNQEKKILKIIDIFGREVRPKKNMILFYIYNDQSVKKIIIK [TEP139] | < 25 µg
